# Test results published in publication doi:10.1101/2024.09.13.612588 (bioRxiv, 2024).
# Biological target: the molecule itself
# Assay: high-speed AFM
protein,measurement,value
"Toll/interleukin-1 receptor domain of MyD88 (TIR_(MyD88)), wild type (domain or fragment) PLGHMPERFDAFICYCPSDIQFVQEMIRQLEQTNYRLKLCVSDRDVLPGTCVWSIASELIEKRCRRMVVVVSDDYLQSKECDFQTKFALSLSPGAHQKRLIPIKYKAMKKEFPSILRFITVCDYTNPCTKSWFWTRLAKALSLP",stoichiometry N,58 subunits
